Experiment [1] addresses T1, HLA-A*01:01_… (HLA-PEPTIDE target G2), recombinant soluble complex (human, UniProt P04439-2 25-297; P61769 21-119, enzymatically biotinylated (BirA) for screening and functional assays). Kind of experiment: BLI (Octet), biotinylated pHLA on streptavidin sensors, Fab in solution.
In experiment [2] the target is T2, HLA-A*02:01_… (HLA-PEPTIDE target G8), recombinant soluble complex (human, UniProt P04439 25-297 at identity 0.94); P61769 21-119, enzymatically biotinylated (BirA) for screening and functional assays).
T2 construct: Also crystallised with Fab G8-P1C11
Put plainly: BLI Octet, pHLA on streptavidin sensor, 1:1 fit. In general terms: BLI is a label-free optical method that tracks binding on a fibre tip over time.

Experiment [3] deals with T2, HLA-A*02:01_… (HLA-PEPTIDE target G8), …. Put plainly: BLI (Octet), biotinylated pHLA on streptavidin sensors; printed under the Fab sensorgrams, the sheet does not say which format or fit gave the bivalent value.
The target in experiment [4] is T1, HLA-A*01:01_… (HLA-PEPTIDE target G2), …. Put plainly: BLI Octet, pHLA on streptavidin sensor, 1:1 fit.
The target in experiment [5] is HLA-A*01:01_… (G2) on K562 cells (human). Kind of experiment: flow cytometry, HLA-A*01:01-transduced K562 cells pulsed with target peptide, IgG titration. In general terms: In flow cytometry, cells or beads pass a laser one at a time.
In experiment [6] the target is T3, HLA-A*01:01_… (G10) on cells (human).
T3 construct: also called G10-presenting K562 cells; Colo829
Put plainly: flow cytometry histogram, IgG at 30 µg/mL on HLA-A*01:01-transduced K562 cells pulsed with 50 µM ….

For experiment [7], the target named is T4, HLA-B*35:01_… (HLA-PEPTIDE target G5), recombinant soluble complex (human, UniProt P01889 25-297 at identity 0.94); P61769 21-119, enzymatically biotinylated (BirA) for screening and functional assays). Put plainly: BLI (Octet), biotinylated pHLA on streptavidin sensors; printed under the Fab sensorgrams, the sheet does not say which format or fit gave the bivalent value [cont'd].

Experiment [8] addresses T4, HLA-B*35:01_… (HLA-PEPTIDE target G5), …. Kind of experiment: BLI Octet, pHLA on streptavidin sensor, 1:1 fit.
Experiment [9] concerns the target T2, HLA-A*02:01_… (HLA-PEPTIDE target G8), …. Put plainly: BLI (Octet), biotinylated pHLA on streptavidin sensors; printed under the Fab sensorgrams, the sheet does not say which format or fit gave the bivalent value [cont'd].

The Kd is the concentration at which binding is half-saturated. What is called koff is a measure of how fast the partners let go of each other. As usually defined, the kon is the second-order rate constant of association.

Where a chain is given by its changes, count along the chain named.

B1: Fab G2-P1H11 (Fab, V domains shown)
VH: QVQLVQSGAEVKKPGASVKVSCKASGYTFTNYYMHWVRQAPGQGLEWMGMINPSGGGTSYAQKFQGRVTMTRDTSTSTVYMELSSLRSEDTAVYYCARGNPWELRLDYWGQGTLVTVSS
VL: DIQMTQSPSSLSASVGDRVTITCQASQDISNYLNWYQQKPGKAPKLLIYAASSLQSGVPSRFSGSGSGTDFTLTISSLQPEDFATYYCQQYYSYPFTFGPGTKVDIK
notes: Fab
As for B1, in experiment [1], the Kd came out at 46.1 nM, the koff was found to be 0.0233 s⁻¹ and the kon was found to be 527000 M⁻¹ s⁻¹.

B2: Fab G8-P4F05 (Fab, V domains shown)
VH: QVQLVQSGAEVKKPGASVKVSCKASGYTFSNMYLHWVRQAPGQGLEWMGWINPNTGDTNYAQTFQGRVTMTRDTSTSTVYMELSSLRSEDTAVYYCARGLYGDYFLYYGMDVWGQGTKVTVSS
VL: B1 VL with Q24R, D28G, N34A, S53T, Y91S, Y94T, F96L, P100G, D105E
notes: Fab from HEK293; also called R3G8-P4F05
Consider B2, for which, in [2], the Kd was 984 nM, the koff stood at 0.063 s⁻¹ and the kon turned out to be 64000 M⁻¹ s⁻¹. Also, in [3], the “Apparent KD (bivalent)” value came out at 7.9 nM.

B3: Fab G8-P1B03 (Fab, V domains shown)
VH: EVQLLESGGGLVQPGGSLRLSCAASGFTFSDYYMSWVRQAPGKGLEWVSGINWNGGSTGYADSVKGRFTISRDNSKNTLYLQMNSLRAEDTAVYYCARVEQGYDIYYYYYMDVWGKGTTVTVSS
VL: B1 VL with Q24R, D28S, N31S, A50K, Q55E, Y91S, Y94A, F96Y
notes: Fab from HEK293
As to B3, in [2], the dissociation constant Kd was determined as 307 nM, the koff stood at 0.0511 s⁻¹ and the kon stood at 167000 M⁻¹ s⁻¹. The “Apparent KD (bivalent)” value in [3] is 3.54 nM.

B4: Fab G2-P2C06 (Fab, V domains shown)
VH: QVQLVQSGAEVKKPGASVKVSCKSSGYSFDSYVVNWVRQAPGQGLEWMGWINPNSGGTNYAQKFQGRVTMTRDTSTSTVYMELSSLRSEDTAVYYCARDWVLDYWGQGTLVTVSS
VL: B1 VL with Q24R, D28T, N31S, Y32W, N34A, Y91S, Y94T
notes: Fab
In the case of B4, in [4], the dissociation constant (Kd) was found to be 30.6 nM, the koff is 0.0348 s⁻¹ and the kon stood at 1.14e+06 M⁻¹ s⁻¹.

B5: IgG G2-P1H11 (antibody, V domains shown)
VH: B1 VH
VL: B1 VL
For the molecule B5, the binding result in experiment [5] is reported as “binds”.

B6: IgG G10-P1B07 (antibody, V domains shown)
VH: QVQLVQSGAEVKKPGASVKVSCKASGYTFTSYYMHWVRQAPGQGLEWMGIIHPGGGTTSYAQKFQGRVTMTRDTSTSTVYMELSSLRSEDTAVYYCARDKVYGDGFDPWGQGTLVTVSS
VL: DIQMTQSPSSLSASVGDRVTITCRASQSISRWLAWYQQKPGKAPKLLIFDASRLQSGVPSRFSGSGSGTDFTLTISSLQPEDFATYYCQQAEAFPYTFGQGTKVEIK
notes: IgG; also called R3G10-P1B07
Take B6: the binding result in experiment [6] is listed as “binds”.

B7: Fab G5-P1C12 (Fab, V domains shown)
VH: QVQLVQSGAEVKKPGSSVKVSCKASGGTFSNFGVSWLRQAPGQGLEWMGGIIPILGTANYAQKFQGRVTITADESTSTAYMELSSLRSEDTAVYYCATPTNSGYYGPYYYYGMDVWGQGTTVTVSS
VL: B6 VL with R31S, F49Y, D50A, R53T, A91S, E92Y, A93S, F94I, Y96L, Q100G
notes: Fab from HEK293
On to B7, for which, in [7], the “Apparent KD (bivalent)” value is 0.378 nM. In addition, in experiment [8], the dissociation constant Kd is 85.9 nM and the dissociation rate constant (koff) is 0.0158 s⁻¹.

B8: Fab G8-P5G08 (Fab, V domains shown)
VH: B2 VH with S30T, N31S, M32N, L34M, I51M, T55S, D57N, N59G, T63K, K118T
VL: not shown
notes: Fab from HEK293; also called R3G8-P5G08
As to B8, the “Apparent KD (bivalent)” value in [9] amounted to 6.65 nM. For the same molecule, in experiment [2], the Kd was 530 nM, the off-rate (koff) turned out to be 0.0528 s⁻¹ and the kon is 99700 M⁻¹ s⁻¹.
